As usually defined, the stoichiometry N is a count of units in the complex or per binding partner.

The text below walks through data of paper PMC11456856.

This assay deals with human FcRider (afucosylated two-unit tandem hIgG1 Fc joined by the trimerization sequence Foldon). Briefly: native gel or EMSA; blue native PAGE, 1.5 h at 150 V in NativePAGE running buffer; hFcRider purified by Protein A column; monomer ~65 kDa in reducing SDS-PAGE. A general note: Mobility shift assays separate free from complexed probe on a gel.

In the case of “human FcRider (afucosylated two-unit tandem hIgG1 Fc joined by the trimerization sequence Foldon)”, the stoichiometry N was determined as 6.
